Results on 1 protein are retold here after patent publication US20180360992A1 (PRECIGEN, published 2018).

The data set deals with the molecule itself. Nature of the data set: native-PAGE/immunoblot of conditioned media of transfected 293T cells; self-association (homodimer). (Immunoblotting shows a protein as a band on a membrane.)

B1: S100A1 with C-terminal fp2a-cleaved linker tail (2A tail), as cleaved from lead dual-gene and triple-gene constructs (other)
chain: MGSELETAMETLINVFHAHSGKEGDKYKLSKKELKELLQTELSGFLDAQKDVDAVDKVMKELDENGDGEVDFQEYVVLVAALTVACNNFFWENSRAKRAPVKQGSGATNFSLLKQAGDVEENPG
notes: Homodimer seen by native PAGE and immunoblot; also called S100A1 with 2A tail
On to B1, for which the binding result is given as “binds”.
